# Test results published in patent US20170029484A1 (published 2017).
# Where no end group is shown, it is not given here. [ ]: non-standard residue; d: D form. pS = N[C@@H](COP(=O)(O)O)C(=O)O
# T1: CDC25b (M-phase inducer phosphatase 2) peptide on HLA-A*02:01 (human)
# T1 peptide: GLLG[pS]PVRA
# T2: insulin receptor substrate 2 (IRS-2) peptide on HLA-A*02:01 (human)
# T2 peptide: RVA[pS]PTSGV
# T3: β-catenin peptide on HLA-A*02:01 (human)
# T3 peptide: YLD[pS]GIHSGA
# T4: desmuslin/synemin peptide on HLA-A*02:01 (human)
# T4 peptide: RTF[pS]PTYGL
# B1: IRS-2A (TCR, V domains shown)
# Valpha: AQSVTQPDARVTVSEGASLQLRCKYSYSGTPYLFWYVQYPRQGLQLLLKYYSGDPVVQGVNGFEAEFIKSNSSFHLRKASVHWSDSAVYFCAVSEGADRLTFGKGTQLIIQP
# Vbeta: EAGVTQSPRYAVLQEGQAVSFWCDPISGHDTLYWYQQPRDQGPQLLVYFRDEAVIDNSQLPSDRFSAVRPKGTNSTLKIQSAKQGDTATYLCASSLLDSSYEQYFGPGTRLTVL
# B2: IRS-2B (TCR, V domains shown)
# Valpha: AQSVTQPDARVTVSEGASLQLRCKYSYSGTPYLFWYVQYPRQGLQLLLKYYSGDPVVQGVNGFEAEFIKSNSSFHLRKASVHWSDSAVYFCAVSAGSGGKLTLGAGTRLQVNL
# Vbeta: EAAVTQSPRSKVAVTGGKVTLSCHQANNHDYMYWYRQDTGHGLRLIHYSYVADSTEKGDIPDGYKASRPSQENFSLILELASLSQTAVYFCASSDRDNYAEQFFGPGTRLTVL
# B3: the CDC25b TCR (TCR, V domains shown)
# Valpha: GEQVEQRPPHLSVREGDSAVIICTYTDPNSYYFFWYKQEPGAGLQLLMKVFSSTEINEGQGFTVLLNKKDQQLSLNLTAAHPGDSAVYFCAVKPGGYKVVFGSGTRLLVSP
# Vbeta: EAAVTQSPRNKVAVTGGKVTLSCNQTNNHNNMYWYRQDTGHGLRLIHYSYGAGSTEKGDIPDGYKASRPSQENFSLILELATPSQTSVYFCASGGDTQYFGPGTRLLVL
# B4: DESA (TCR, V domains shown)
# Valpha: AQSVTQPDARATVSEGASLRLRCKYSYSGTPYLFWYVQYPRQGLQLLLKYYSGDPVVQGVNGFEAEFSKSNSSFHLRKASVHWSDSAVYFCVLSYSNNRIFFGDGTQLVMKP
# Vbeta: DSGVVQSPRHIIKEKGGRSVLTCIPISGHSNVVWYQQTLGKELKFLIQHYEKVERDKGFLPSRFSVQQFDDYHSEMNMSALELEDSAMYFCASSLGGGEVFFGKGTRLTVV
# B5: DESB (TCR, V domains shown)
# Valpha: AQSVTQPDARVTVSEGASLQLRCKYSYSGTPYLFWYAQYPRQGLQLLLKYYSGDPVVQGVNGFEAEFSKSNSSFHLRKASVHWSDSAVYFCVLRYGGNNKLTFGQGTVLSVIP
# Vbeta: EAAVTQSPRSKVAVTGGKVTLSCHQTNNHDYMYWYRQDTGHGLRLIHYSYVADSTEKGDIPDGYKASRPSQENFSLILELASLSQTAVYFCASRYRDTQYFGPGTRLLVL
# B6: βCATA (TCR, V domains shown)
# Valpha: GQQVQQSPASLVLQEGENAELQCNFSSTATRLQWFYQHPGGRLVSLFYNPSGTKHTGRLTSTTVTNERRSSLHISSSQTTDSGTYFCAIPPGTGSKLSFGKGAKLTVSP
# Vbeta: NTKITQSPRYLILGRANKSLECEQHLGHNAMYWYKQSAEKPPELMFLYNLKQLIRNETVPSRFIPECPDSSKLLLHISAVDPEDSAVYFCASSQGQKQYFGPGTRLTVL
# What was measured:
# [1] = target: T1, CDC25b (M-phase inducer phosphatase 2) …; experiment: killing
# [2] = target: T2, insulin receptor substrate 2 (IRS-2) …; experiment: cytokine release
# [3] = target: T2, insulin receptor substrate 2 (IRS-2) …; experiment: killing
# [4] = target: T3, β-catenin peptide on HLA-A*02:01; experiment: killing
# [5] = target: T4, desmuslin/synemin peptide on HLA-A*02:01; experiment: cytokine release
# [6] = target: T3, β-catenin peptide on HLA-A*02:01; experiment: cytokine release
binder,measurement,setting,value
B1,binding result,[1],no recognition
B2,binding result,[2],recognises
B3,binding result,[3],no recognition
same,binding result,[4],no recognition
B4,binding result,[5],recognises
B5,binding result,[5],recognises
B6,binding result,[6],recognises
